Values of other authors in article PMC3721222.
Read-outs that look alike come from different tables or passages of the source. Blank lines part the entries; values can stand above or below the substance they belong to.

Assays:
Trypsin (Bos taurus) [1] = target: Trypsin (Bos taurus) (UniProt P00760)
[2] = target: Pancreatic elastase (Sus scrofa) (UniProt P00772)
[3] = target: Subtilisin A (Bacillus licheniformis) (UniProt P00780)
[4] = target: Neutrophil elastase (Homo sapiens) (UniProt P08246)
[5] = target: Proteinase K (Parengyodontium album) (UniProt P06873)
[6] = target: Chymotrypsin (Bos taurus) (UniProt P00766)
[7] = target: Chymotrypsin (Bos taurus) (UniProt P00766); remark: listed apart in the source
Trypsin (Bos taurus) [8] = target: Trypsin (Bos taurus) (UniProt P00760); remark: listed apart in the source
Thrombin (Homo sapiens) = Thrombin (Homo sapiens) (UniProt P00734)
Trypsin (Bos taurus) [9] = target: Trypsin (Bos taurus) (UniProt P00760); remark: listed apart in the source
Trypsin (Bos taurus) [10] = target: Trypsin (Bos taurus) (UniProt P00760); remark: listed apart in the source
Plasmin (Homo sapiens) [11] = target: Plasmin (Homo sapiens) (UniProt P00747)
Plasmin (Homo sapiens) [12] = target: Plasmin (Homo sapiens) (UniProt P00747); remark: listed apart in the source
Trypsin (Bos taurus) [13] = target: Trypsin (Bos taurus) (UniProt P00760); remark: listed apart in the source
[14] = target: alpha-Factor XIIa (Homo sapiens) (UniProt P00748)
[15] = target: Plasma kallikrein (Homo sapiens) (UniProt P03952)
[16] = target: Chymotrypsin (Bos taurus) (UniProt P00766); remark: listed apart in the source
Kv1.2 = Kv1.2 (UniProt P16389)
Kv1.1 = Kv1.1 (UniProt Q09470)
Kv1.6 = Kv1.6 (UniProt P17658)
Trypsin (Bos taurus) [17] = target: Trypsin (Bos taurus) (UniProt P00760); remark: listed apart in the source
Plasmin (Homo sapiens) [18] = target: Plasmin (Homo sapiens) (UniProt P00747); remark: listed apart in the source
[19] = target: Chymotrypsin (Bos taurus) (UniProt P00766); remark: listed apart in the source
Trypsin (Bos taurus) [20] = target: Trypsin (Bos taurus) (UniProt P00760); remark: listed apart in the source
[21] = target: Chymotrypsin (Bos taurus) (UniProt P00766); remark: listed apart in the source
Trypsin (Bos taurus) [22] = target: Trypsin (Bos taurus) (UniProt P00760); remark: listed apart in the source

Sequence of UniProt P00760 (P00760 149-246): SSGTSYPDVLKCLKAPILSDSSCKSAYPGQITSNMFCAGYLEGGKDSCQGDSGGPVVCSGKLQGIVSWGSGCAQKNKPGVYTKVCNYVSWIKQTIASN
Sequence of UniProt P00747 (P00747 581-810): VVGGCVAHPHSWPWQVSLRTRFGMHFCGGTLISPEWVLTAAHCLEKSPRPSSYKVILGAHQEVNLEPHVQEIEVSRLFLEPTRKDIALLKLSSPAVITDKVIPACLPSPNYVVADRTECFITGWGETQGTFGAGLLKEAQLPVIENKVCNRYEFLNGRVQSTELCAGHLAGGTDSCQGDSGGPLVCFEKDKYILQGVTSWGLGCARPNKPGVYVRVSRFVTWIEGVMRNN
Sequence of UniProt P17658 (P17658 whole entry): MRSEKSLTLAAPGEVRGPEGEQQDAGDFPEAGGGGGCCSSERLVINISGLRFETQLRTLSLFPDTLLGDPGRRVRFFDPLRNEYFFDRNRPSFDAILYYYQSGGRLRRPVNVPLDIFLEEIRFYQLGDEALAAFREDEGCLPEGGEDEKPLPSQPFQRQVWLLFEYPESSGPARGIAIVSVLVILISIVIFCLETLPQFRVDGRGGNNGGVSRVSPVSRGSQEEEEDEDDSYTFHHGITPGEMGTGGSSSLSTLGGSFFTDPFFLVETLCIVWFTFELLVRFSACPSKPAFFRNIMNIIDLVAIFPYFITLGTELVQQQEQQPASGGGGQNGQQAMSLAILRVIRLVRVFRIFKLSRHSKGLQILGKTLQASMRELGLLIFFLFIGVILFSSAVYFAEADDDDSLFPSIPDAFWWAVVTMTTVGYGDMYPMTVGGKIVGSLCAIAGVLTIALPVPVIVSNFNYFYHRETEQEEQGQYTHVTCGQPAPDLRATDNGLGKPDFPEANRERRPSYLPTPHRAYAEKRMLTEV
Sequence of UniProt P06873 (P06873 106-384): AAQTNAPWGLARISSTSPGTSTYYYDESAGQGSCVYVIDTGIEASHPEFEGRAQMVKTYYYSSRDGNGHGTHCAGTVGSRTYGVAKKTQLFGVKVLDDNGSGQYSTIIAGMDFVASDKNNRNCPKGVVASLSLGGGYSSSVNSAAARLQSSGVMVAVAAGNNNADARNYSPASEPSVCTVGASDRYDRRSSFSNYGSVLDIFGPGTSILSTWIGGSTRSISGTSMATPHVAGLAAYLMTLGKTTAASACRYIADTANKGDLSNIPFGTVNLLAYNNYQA
Sequence of UniProt P08246 (P08246 30-267): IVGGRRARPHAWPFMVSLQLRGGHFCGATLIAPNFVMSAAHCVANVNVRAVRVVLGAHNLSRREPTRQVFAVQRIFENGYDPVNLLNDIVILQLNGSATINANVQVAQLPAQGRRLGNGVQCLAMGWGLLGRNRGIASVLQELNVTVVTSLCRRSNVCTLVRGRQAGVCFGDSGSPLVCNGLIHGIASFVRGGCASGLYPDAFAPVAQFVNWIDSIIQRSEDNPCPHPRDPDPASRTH
Sequence of UniProt P00748 (P00748 20-372, chain 1 of 2): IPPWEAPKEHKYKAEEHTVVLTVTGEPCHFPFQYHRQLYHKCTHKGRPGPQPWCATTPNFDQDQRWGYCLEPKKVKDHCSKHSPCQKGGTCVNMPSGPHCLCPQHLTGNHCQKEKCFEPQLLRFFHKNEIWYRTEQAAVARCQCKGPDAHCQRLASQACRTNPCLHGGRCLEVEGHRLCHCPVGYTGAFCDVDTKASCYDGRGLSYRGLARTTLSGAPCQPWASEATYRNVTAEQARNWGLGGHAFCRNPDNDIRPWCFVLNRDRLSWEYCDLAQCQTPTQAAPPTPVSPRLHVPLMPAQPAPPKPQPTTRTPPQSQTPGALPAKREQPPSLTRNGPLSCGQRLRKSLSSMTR
Sequence of UniProt P00748 (P00748 373-615, chain 2 of 2): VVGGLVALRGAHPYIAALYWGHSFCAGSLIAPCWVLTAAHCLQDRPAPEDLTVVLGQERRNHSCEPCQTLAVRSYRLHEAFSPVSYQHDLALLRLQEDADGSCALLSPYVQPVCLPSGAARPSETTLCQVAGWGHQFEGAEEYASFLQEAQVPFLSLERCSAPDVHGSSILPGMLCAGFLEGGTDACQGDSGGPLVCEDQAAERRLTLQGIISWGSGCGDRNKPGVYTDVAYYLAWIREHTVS
Sequence of UniProt P03952 (P03952 391-638): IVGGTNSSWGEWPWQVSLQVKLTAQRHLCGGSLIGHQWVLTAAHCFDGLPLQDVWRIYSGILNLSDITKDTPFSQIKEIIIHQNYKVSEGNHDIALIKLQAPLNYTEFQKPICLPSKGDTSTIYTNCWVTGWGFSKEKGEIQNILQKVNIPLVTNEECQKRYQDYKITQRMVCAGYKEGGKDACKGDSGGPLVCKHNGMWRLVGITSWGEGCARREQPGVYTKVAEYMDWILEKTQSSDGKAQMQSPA
Sequence of UniProt P00780 (P00780 106-379): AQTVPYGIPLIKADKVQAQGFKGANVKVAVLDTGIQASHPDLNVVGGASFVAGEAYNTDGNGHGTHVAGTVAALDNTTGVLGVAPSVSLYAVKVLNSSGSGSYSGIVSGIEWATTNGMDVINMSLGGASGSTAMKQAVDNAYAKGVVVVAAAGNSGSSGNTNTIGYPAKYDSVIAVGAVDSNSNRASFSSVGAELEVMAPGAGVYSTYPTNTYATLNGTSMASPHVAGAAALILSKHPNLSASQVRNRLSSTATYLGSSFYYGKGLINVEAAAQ
Sequence of UniProt P16389 (P16389 whole entry): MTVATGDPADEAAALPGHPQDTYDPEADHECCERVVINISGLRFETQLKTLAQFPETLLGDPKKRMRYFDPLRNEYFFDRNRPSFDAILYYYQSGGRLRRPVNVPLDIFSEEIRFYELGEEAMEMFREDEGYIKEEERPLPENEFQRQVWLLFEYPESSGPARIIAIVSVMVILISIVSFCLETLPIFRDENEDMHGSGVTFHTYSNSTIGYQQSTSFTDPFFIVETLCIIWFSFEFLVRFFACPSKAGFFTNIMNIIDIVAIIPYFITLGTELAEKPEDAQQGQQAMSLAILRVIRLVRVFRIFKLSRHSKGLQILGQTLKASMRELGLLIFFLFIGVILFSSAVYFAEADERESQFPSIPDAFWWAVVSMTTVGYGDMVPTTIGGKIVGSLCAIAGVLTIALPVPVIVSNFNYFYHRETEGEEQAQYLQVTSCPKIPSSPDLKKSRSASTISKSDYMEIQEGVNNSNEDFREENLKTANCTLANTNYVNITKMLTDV
Sequence of UniProt Q09470 (Q09470 whole entry): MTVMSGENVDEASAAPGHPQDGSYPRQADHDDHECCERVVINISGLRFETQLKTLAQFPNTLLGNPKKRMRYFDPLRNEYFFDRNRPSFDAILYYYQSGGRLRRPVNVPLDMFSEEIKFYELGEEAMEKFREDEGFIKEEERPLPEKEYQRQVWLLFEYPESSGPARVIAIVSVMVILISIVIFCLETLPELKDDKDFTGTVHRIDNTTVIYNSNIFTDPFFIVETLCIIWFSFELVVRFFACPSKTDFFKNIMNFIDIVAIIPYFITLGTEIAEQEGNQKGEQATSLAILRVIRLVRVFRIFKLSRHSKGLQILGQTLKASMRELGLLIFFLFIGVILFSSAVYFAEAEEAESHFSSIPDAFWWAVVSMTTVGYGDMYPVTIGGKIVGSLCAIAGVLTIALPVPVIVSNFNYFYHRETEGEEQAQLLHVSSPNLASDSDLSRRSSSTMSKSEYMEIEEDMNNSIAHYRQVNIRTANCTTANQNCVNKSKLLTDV
Sequence of UniProt P00772 (P00772 27-266): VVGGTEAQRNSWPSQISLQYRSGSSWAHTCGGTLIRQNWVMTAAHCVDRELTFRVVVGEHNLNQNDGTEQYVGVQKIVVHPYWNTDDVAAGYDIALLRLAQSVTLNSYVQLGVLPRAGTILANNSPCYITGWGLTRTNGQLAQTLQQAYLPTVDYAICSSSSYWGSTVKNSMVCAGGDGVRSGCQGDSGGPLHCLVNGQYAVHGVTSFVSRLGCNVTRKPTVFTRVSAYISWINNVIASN

Substance: rBmKTT-3 (from UniProt P0DJ47)
Kd (Trypsin (Bos taurus) [1]): 760 nM

Substance: AvCI (from UniProt L7X735)
Ki [2]: 11.3 nM | Ki [3]: 20.5 nM | Ki [4]: 8.74 nM | Ki [5]: 65.4 nM | Ki [6]: 49.9 nM

Ki [7]: 3520 nM
Substance: Oh11-1 (from UniProt P82966)

Substance: APEKTx1 (from UniProt P86862)
Kd (Trypsin (Bos taurus) [8]): 124 nM

Substance: Bicolin (from UniProt C0LNR2)
Ki (Thrombin (Homo sapiens)): 26000 nM | Ki (Trypsin (Bos taurus) [9]): 550 nM

Substance: Pr-mulgin 3 (from UniProt E7FL13)
Ki (Trypsin (Bos taurus) [10]): 5 nM | Ki (Plasmin (Homo sapiens) [11]): 100 nM

Substance: Textilinin-1 (from UniProt Q90WA1)
Ki (Plasmin (Homo sapiens) [12]): 0.49 nM | Ki (Trypsin (Bos taurus) [13]): 0.76 nM

Substance: TSPI (from UniProt B7S4N9)
Ki [14]: 2380 nM | Ki [15]: 0.057 nM

Ki [16]: 4.77 nM
Substance: BBPTI-1 (from UniProt A8Y7P1)

Substance: α-dendrotoxin (from UniProt P00980)
Kd (Kv1.2): < 20 nM | Kd (Kv1.1): < 20 nM | Kd (Kv1.6): < 20 nM

Substance: Pr-mulgin 2 (from UniProt E7FL12)
Ki (Trypsin (Bos taurus) [17]): 5 nM | Ki (Plasmin (Homo sapiens) [18]): 40 nM | Ki [19]: 40 nM

Ki (Trypsin (Bos taurus) [20]): 391 nM | Ki [21]: 84.6 nM
Substance: OH-TCI (recombinant) (from UniProt B6RLX2)

Substance: HWTX-XI (from UniProt P68425)
Kd (Trypsin (Bos taurus) [22]): 0.23 nM
